For experiment [1], the target named is T1, human transferrin receptor (TfR) on hCMEC/D3 brain endothelial cells (human, UniProt P02786 1-760).
T1 construct: whole, on cells; also called blood brain barrier receptor
Briefly: FACS on hCMEC/D3 cells, anti-IgG-PE detection, Dig-Cy5 as payload.
Excerpt: To evaluate this functionality of the hapten-binding bispecific antibodies as reported herein, simultaneous cell surface and payload binding was addressed by FACS analyses. For these analyses, cell binding of the blood brain barrier-shuttle module (=bispecific antibody) was detected by phytoerythrin-labeled IgG recognizing secondary antibodies. Simultaneous payload binding was detected by application of a haptenylated fluorescent payload (digoxigenylated Cy5; DIG-Cy5 (see above)).

Experiment [2] concerns the target T1, human transferrin receptor (TfR) on …. Briefly: hCMEC/D3 transwell assay, IgG ELISA of cell lysates and media. In general terms: An ELISA detects its analyte on a solid surface through an enzyme-linked reagent.
Description: We used brain endothelial cells (hCMEC/D3) to investigate cell binding and transcytosis of the shuttle modules as reported herein. […] To investigate cell binding and transcytosis in hCMEC/D3, hCMEC/D3 cells cultured on filter inserts were incubated apically with the bispecific antibody or parent antibody (without hapten-binding scFvs as controls) for 1 h at 37° C. Cell monolayers were washed at RT in serum-free medium apically (400 μl) and basolaterally (1600 μl) three times for 3-5 min. each. All wash volumes were collected to monitor efficiency of removal of the unbound ligand or antibody. Pre-warmed medium was added to the apical chamber and the filters transferred to a fresh 12 well plate (blocked overnight with PBS containing 1% BSA) containing 1600 μl pre-warmed medium. At this point, cells on some of the filters were lysed in 500 μl RIPA buffer (Sigma, Munich, Germany, #R0278) in order to determine specific uptakes. The remaining filters were incubated at 37° C., and samples of cells and of basolateral and apical media were collected at various time points to determine apical and/or basolateral release. The content of antibody in the samples was quantified using a highly sensitive IgG ELISA.

T1 sequence (P02786 whole entry): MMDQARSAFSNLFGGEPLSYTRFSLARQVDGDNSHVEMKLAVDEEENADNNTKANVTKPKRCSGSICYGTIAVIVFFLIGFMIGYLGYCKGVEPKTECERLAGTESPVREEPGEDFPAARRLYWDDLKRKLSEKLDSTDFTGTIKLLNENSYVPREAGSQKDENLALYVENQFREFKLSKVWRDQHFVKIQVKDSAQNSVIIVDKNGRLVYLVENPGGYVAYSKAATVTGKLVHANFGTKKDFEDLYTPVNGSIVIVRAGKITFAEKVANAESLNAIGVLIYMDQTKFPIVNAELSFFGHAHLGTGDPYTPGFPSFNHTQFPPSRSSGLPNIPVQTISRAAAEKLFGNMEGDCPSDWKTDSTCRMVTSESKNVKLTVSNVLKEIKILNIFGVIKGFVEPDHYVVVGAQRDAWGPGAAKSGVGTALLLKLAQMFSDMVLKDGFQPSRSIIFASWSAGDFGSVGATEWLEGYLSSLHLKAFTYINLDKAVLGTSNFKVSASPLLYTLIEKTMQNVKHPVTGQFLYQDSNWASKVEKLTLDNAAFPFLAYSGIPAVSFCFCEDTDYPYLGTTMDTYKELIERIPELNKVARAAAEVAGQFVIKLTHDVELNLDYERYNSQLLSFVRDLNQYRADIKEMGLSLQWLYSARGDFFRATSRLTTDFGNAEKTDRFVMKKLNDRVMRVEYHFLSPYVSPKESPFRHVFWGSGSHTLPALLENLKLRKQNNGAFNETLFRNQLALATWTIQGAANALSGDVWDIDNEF

B1: TfR1-Dig bispecific antibody (digoxigenylated payload binding blood brain barrier-shuttle module that binds TfR with high affinity) (bispecific antibody, human IgG1, kappa)
light: QIVLTQSPAIMSASPGEKVTMTCSASSSIRYIHWYQQRPGTSPKRWIYDTSNLASGVPARFSGSGSGTSYSLTISSMEAEDAATYYCHQRNSYPWTFGGGTRLEIKRTVAAPSVFIFPPSDEQLKSGTASVVCLLNNFYPREAKVQWKVDNALQSGNSQESVTEQDSKDSTYSLSSTLTLSKADYEKHKVYACEVTHQGLSSPVTKSFNRGEC
heavy: not shown
notes: also called anti-TfR1 antibody-Dig
Consider B1, for which the binding result in experiment [1] was “binds”.

B2: TfR2-Bio bispecific antibody (biotinylated payload binding blood brain barrier-shuttle module that binds TfR with reduced affinity) (bispecific antibody, human IgG1, kappa)
light: QIVLTQSPAIMSASPGEKVTVTCSASSSIRYMHWYQQKPGTSPKRWIYDTSELASGVPARFSGSGSGTSYSLTINSMEAEDAATYYCHQRSSYPFTFGGGTKLEIKRTVAAPSVFIFPPSDEQLKSGTASVVCLLNNFYPREAKVQWKVDNALQSGNSQESVTEQDSKDSTYSLSSTLTLSKADYEKHKVYACEVTHQGLSSPVTKSFNRGEC
heavy: not shown
notes: also called anti-TfR2-Bio
B2: the binding result in experiment [2] is listed as “binds”.

B3: TfR1-Bio bispecific antibody (biotinylated payload binding blood brain barrier-shuttle module that binds TfR with high affinity) (bispecific antibody, human IgG1, kappa)
light: QIVLTQSPAIMSASPGEKVTMTCSASSSIRYIHWYQQRPGTSPKRWIYDTSNLASGVPARFSGSGSGTSYSLTISSMEAEDAATYYCHQRNSYPWTFGGGTRLEIKRTVAAPSVFIFPPSDEQLKSGTASVVCLLNNFYPREAKVQWKVDNALQSGNSQESVTEQDSKDSTYSLSSTLTLSKADYEKHKVYACEVTHQGLSSPVTKSFNRGEC
heavy: not shown
notes: also called anti-TfR1 antibody-Bio
As for B3, the binding result in experiment [2] was “binds”.

B4: TfR2-Dig bispecific antibody (digoxigenylated payload binding blood brain barrier-shuttle module that binds TfR with reduced affinity) (bispecific antibody, human IgG1, kappa)
light: QIVLTQSPAIMSASPGEKVTVTCSASSSIRYMHWYQQKPGTSPKRWIYDTSELASGVPARFSGSGSGTSYSLTINSMEAEDAATYYCHQRSSYPFTFGGGTKLEIKRTVAAPSVFIFPPSDEQLKSGTASVVCLLNNFYPREAKVQWKVDNALQSGNSQESVTEQDSKDSTYSLSSTLTLSKADYEKHKVYACEVTHQGLSSPVTKSFNRGEC
heavy: not shown
notes: also called anti-TfR2-antibody Dig
Take B4: the binding result in experiment [1] is given as “binds”.

B5: anti-TfR1 antibody (high affinity bivalent anti-TfR antibody, parent antibody without hapten-binding scFvs) (antibody, human IgG1, kappa, V domains shown)
VH: EVQLQQSGPELVKPGASMKISCKASGYSFTGYTMNWVKQSHGENLEWIGRINPHNGGTDYNQKFKDKAPLTVDKSSNTAYMELLSLTSEDSAVYYCARGYYYYSLDYWGQGTSVTVSS
VL: QIVLTQSPAIMSASPGEKVTMTCSASSSIRYIHWYQQRPGTSPKRWIYDTSNLASGVPARFSGSGSGTSYSLTISSMEAEDAATYYCHQRNSYPWTFGGGTRLEIKR
notes: also called antibody TfR1
In the case of B5, the binding result in experiment [2] is listed as “binds”.

B6: anti-TfR2 antibody (bivalent anti-TfR antibody with reduced affinity, parent antibody without hapten-binding scFvs) (antibody, human IgG1, kappa, V domains shown)
VH: EVQLQQSGPELVKPGASVKMSCKASGYTFTSYVMHWVKQKPGQGLEWIGYVNPYNDDTKYNEKFRGKATLTSDKSSSTAYMELSSLTSEDSAVYYCARSYYYYSMDNWGQGTSVTVSS
VL: QIVLTQSPAIMSASPGEKVTVTCSASSSIRYMHWYQQKPGTSPKRWIYDTSELASGVPARFSGSGSGTSYSLTINSMEAEDAATYYCHQRSSYPFTFGGGTKLEIKR
notes: also called antibody TfR2
With B6, in experiment [2], the binding result is on record as “binds”.

The values are drawn from patent US20210069338A1 (published 2021).
